The source of these data is patent US20110142851A1 (EMERGENT PRODUCT DEVELOPMENT SEATTLE, published 2011).

One assay addresses T1, recombinant human TNF-α (human, UniProt P01375 77-233).
T1 construct: also called rhTNFα
As to the kind of experiment: sandwich ELISA, HIL-6 coated, Xceptor, then TNF-α. As for the experimental part: The plate was covered, and incubated overnight at 4° C. […] The absorbance of each well was read at 450 nm.

The target of assay [1] is T2, hu HIL6 Fc dimer (dimeric human HIL6/mouse IgG Fc fusion protein) (human).
T2 construct: also called human hyper-IL6 (IL6R-IL6-mIgG); dimeric HIL6
T2 chain: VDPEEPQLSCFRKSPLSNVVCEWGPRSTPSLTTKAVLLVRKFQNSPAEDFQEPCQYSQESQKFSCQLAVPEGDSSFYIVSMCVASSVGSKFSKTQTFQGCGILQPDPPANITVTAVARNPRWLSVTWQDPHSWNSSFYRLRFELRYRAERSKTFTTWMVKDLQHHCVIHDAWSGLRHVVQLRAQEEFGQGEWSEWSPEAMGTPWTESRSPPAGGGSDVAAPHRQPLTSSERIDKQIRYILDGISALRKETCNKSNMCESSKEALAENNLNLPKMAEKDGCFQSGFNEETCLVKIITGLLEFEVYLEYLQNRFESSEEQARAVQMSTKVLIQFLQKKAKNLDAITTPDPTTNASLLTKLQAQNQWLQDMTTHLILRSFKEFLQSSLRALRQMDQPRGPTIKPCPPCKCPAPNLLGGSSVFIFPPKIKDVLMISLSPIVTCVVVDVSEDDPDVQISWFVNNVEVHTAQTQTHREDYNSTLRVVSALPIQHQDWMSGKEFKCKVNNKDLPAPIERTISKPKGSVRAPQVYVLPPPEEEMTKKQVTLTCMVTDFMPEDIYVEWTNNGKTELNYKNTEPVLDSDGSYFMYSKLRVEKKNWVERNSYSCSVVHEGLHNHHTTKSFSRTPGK
As to the kind of experiment: SPR Biacore T100, binder captured by anti-human Fc. As for the experimental part:
(§1) Binding affinities and kinetic rate constants of interaction of hyper-IL6 (HIL6; monomer or dimer), and its components IL6 and sIL6R, with different anti-HIL6 binding domains in scFv, SMIP, Xceptor and reverse Xceptor formats were determined using a Biacore® T100 instrument (GE Healthcare, Piscataway, N.J.).
(§2) Anti-HIL6 SMIPS, Xceptors, and reverse Xceptors were captured by a monoclonal mouse anti-human Fc, which was covalently conjugated to a carboxylmethyl dextran (CM4) surface via amines using N-ethyl-N′-(3-dimethylaminopropyl)-carbodiimide hydrochloride and N-hydroxysuccinimide. The unoccupied sites of the activated surface were blocked by ethanolamine. […] In every cycle, three different HIL6 binders were captured on flow cells 2, 3 and 4, while flow cell 1 was used as the reference cell. For each cycle, a single concentration of a single HIL6-related molecule was injected for 150 seconds at 35 microliters per minute, and then allowed to dissociate for 300 seconds. At the end of the cycle, the surface was regenerated gently using 3M MgCl₂, which dissociates protein bound to anti-hFc capture antibody. Multiple cycles were performed to study binding of monomeric or dimeric HIL6 at different concentrations, in the range of 0-100 nM, for each set of three HIL6 binders captured. […] The experiment was performed at 25° C. Signal associated with binding to the reference cell was used to subtract for bulk refractive changes and blank (buffer-only) injections were used to correct for drift and system noise. The kinetic parameters and affinities were determined using BIAevaluation software. Anti-HIL6 scFv molecules were analyzed in the reverse orientation using a dimeric human HIL6/mouse IgG Fc fusion protein captured by an immobilized rabbit polyclonal anti-mouse IgG Fc antibody on the surface and injecting different concentrations of scFv over the surface. For the HIL6 components IL6 (eBioscience, catalog no. 14-8069) and sIL6R, a single 100 nM injection was performed to obtain a qualitative assessment of binding.

The next assay addresses T3, hu HIL6 AFH monomer (human).
T3 chain: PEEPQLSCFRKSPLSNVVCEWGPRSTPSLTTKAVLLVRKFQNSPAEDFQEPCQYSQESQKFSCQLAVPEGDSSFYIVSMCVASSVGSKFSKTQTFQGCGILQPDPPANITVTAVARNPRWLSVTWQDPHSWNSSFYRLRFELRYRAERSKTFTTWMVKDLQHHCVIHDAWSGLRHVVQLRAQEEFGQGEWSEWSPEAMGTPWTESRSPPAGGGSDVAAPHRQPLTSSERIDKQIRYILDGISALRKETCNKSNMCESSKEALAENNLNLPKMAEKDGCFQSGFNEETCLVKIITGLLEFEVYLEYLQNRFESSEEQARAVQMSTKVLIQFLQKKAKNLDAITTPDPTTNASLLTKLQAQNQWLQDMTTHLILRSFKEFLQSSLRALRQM
Kind of assay: SPR Biacore T100, binder captured by anti-human Fc. The method, then: as §1, §2

The target in assay [2] is T4, recombinant human IL6 (human, UniProt P05231 30-212).
T4 construct: also called rhIL6; IL6 monomer
Kind of assay: SPR Biacore T100, binder captured by anti-human Fc. The method, then:
as §1, §2

The next assay concerns the target T5, IL6:sIL6R complex (human, UniProt P05231 30-212; P08887 20-358).
T5 construct: Non-covalent complex made by mixing 50 nM of each; about 30 nM complex estimated
Kind of assay: SPR Biacore, SMIP captured by anti-human Fc, complex injected. As for the experimental part:
In every cycle, three different HIL6 binders were captured on flow cells 2, 3 and 4, while flow cell 1 was used as the reference cell. For each cycle, a single concentration of a single HIL6-related molecule was injected for 150 seconds at 35 microliters per minute, and then allowed to dissociate for 300 seconds. At the end of the cycle, the surface was regenerated gently using 3M MgCl₂, which dissociates protein bound to anti-hFc capture antibody. Multiple cycles were performed to study binding of monomeric or dimeric HIL6 at different concentrations, in the range of 0-100 nM, for each set of three HIL6 binders captured. […] The experiment was performed at 25° C. Signal associated with binding to the reference cell was used to subtract for bulk refractive changes and blank (buffer-only) injections were used to correct for drift and system noise. The kinetic parameters and affinities were determined using BIAevaluation software. Anti-HIL6 scFv molecules were analyzed in the reverse orientation using a dimeric human HIL6/mouse IgG Fc fusion protein captured by an immobilized rabbit polyclonal anti-mouse IgG Fc antibody on the surface and injecting different concentrations of scFv over the surface. For the HIL6 components IL6 (eBioscience, catalog no. 14-8069) and sIL6R, a single 100 nM injection was performed to obtain a qualitative assessment of binding.

For assay [3], the target named is T4, recombinant human IL6. As to the kind of experiment: SPR Biacore T100, binder captured by anti-human Fc. The source holds these as a separate data set.
Another assay deals with T6, sIL6R Fc dimer (UniProt P08887 20-358, limits assumed).
T6 construct: not shown: Fc
T6 sequence (looked up): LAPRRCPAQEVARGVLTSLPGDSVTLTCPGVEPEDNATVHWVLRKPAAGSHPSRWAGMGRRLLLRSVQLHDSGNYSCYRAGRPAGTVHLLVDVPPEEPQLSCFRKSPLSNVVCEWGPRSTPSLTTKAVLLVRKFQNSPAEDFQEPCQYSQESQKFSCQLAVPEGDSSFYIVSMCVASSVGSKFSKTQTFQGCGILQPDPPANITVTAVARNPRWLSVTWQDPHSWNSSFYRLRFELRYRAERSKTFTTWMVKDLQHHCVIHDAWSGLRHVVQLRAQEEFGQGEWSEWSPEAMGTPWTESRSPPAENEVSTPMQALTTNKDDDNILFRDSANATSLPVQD
Kind of assay: SPR Biacore T100, binder captured by anti-human Fc. The method, then: as §1, §2

T1 sequence (P01375 77-233 limits assumed): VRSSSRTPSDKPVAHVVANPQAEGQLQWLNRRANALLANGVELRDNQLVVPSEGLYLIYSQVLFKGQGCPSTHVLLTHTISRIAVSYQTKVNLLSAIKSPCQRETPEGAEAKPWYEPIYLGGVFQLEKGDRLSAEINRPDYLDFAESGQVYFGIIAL

B1: TRU(XT6)-1006 (Fc fusion)
chain: LPAQVAFTPYAPEPGSTCRLREYYDQTAQMCCSKCSPGQHAKVFCTKTSDTVCDSCEDSTYTQLWNWVPECLSCGSRCSSDQVETQACTREQNRICTCRPGWYCALSKQEGCRLCAPLRKCRPGFGVARPGTETSDVVCKPCAPGTFSNTTSSTDICRPHQICNVVAIPGNASMDAVCTSTSPTRSMAPGAVHLPQPVSTRSQHTQPTPEPSTAPSTSFLLPMGPSPPAEGSTGDTGEPKSSDKTHTCPPCPAPEAAGAPSVFLFPPKPKDTLMISRTPEVTCVVVDVSHEDPEVKFNWYVDGVEVHNAKTKPREEQYNSTYRVVSVLTVLHQDWLNGKAYACAVSNKALPAPIEKTISKAKGQPREPQVYTLPPSRDELTKNQVSLTCLVKGFYPSDIAVEWESNGQPENNYKTTPPVLDSDGSFFLYSKLTVDKSRWQQGNVFSCSVMHEALHNHYTQKSLSLSPGQRHNNSSLNTRTQKARHSPNSEVQLLESGGGLVQPGGSLRLSCAASGFTFSQYNMIWVRQAPGKGLEWVSWISSSGGTEYADSVKGRFTISRDNSKNTLYLQMNSLRAEDTAVYYCAKDRGYGSGSYGAYDAFDIWGQGTMVTVSSGGGGSGGGGSGGGGSQDIQMTQSPSSLSASVGDRVTITCQTSQSIDRYLNWYQQKAGEAPKLLIYAASSLQSGVPSRFSGSGSGTDFTLTISSLQPEDFASYYCQQSYRTPRTFGQGTKVEIK
notes: Xceptor, TNFRSF1B ectodomain N-terminal, anti-IL6xR domain C-terminal
Take B1: in the assay with recombinant human TNF-α, the binding result is on record as “binds”.

B2: TRU(S6)-1002 (Fc fusion)
chain: EVQLLESGGGLVQPGGSLRLSCAASGFTFSFYQMHWVRQAPGKGLEWVSGIYPSGGYTKYADSVKGRFTISRDNSKNTLYLQMNSLRAEDTAVYYCARDLGYGSSWYYFDYWGQGTLVTVSSGGGGSGGGGSGGGGSQSALTQPASVSGSPGQSITISCSGTDSDVGGYNHVSWYQQHPGKAPKLIIYDVDHRPSGISNRFSGSKSGNTASLTISGLQAEDEADYYCSSYRSGSTYVFGTGTKVTVLTGEPKSSDKTHTCPPCPAPEAAGAPSVFLFPPKPKDTLMISRTPEVTCVVVDVSHEDPEVKFNWYVDGVEVHNAKTKPREEQYNSTYRVVSVLTVLHQDWLNGKAYACAVSNKALPAPIEKTISKAKGQPREPQVYTLPPSRDELTKNQVSLTCLVKGFYPSDIAVEWESNGQPENNYKTTPPVLDSDGSFFLYSKLTVDKSRWQQGNVFSCSVMHEALHNHYTQKSLSLSPGK
notes: SMIP (scFv - linker - CH2CH3); also called S6-A2
Consider B2, for which the Kd in assay [1] was found to be 1.3 nM; with hu HIL6 AFH monomer, 2 nM. Moreover, the binding result with recombinant human IL6 [2] was “no binding (tested: 100 nM)”; with IL6:sIL6R complex it was “binds”.

B3: TRU(S6)-1019 (Fc fusion)
chain: EVQLLESGGGLVQPGGSLRLSCAASGFTFSWYLMHWVRQAPGKGLEWVSGIWPSGGHTLYADSVKGRFTISRDNSKNTLYLQMNSLRAEDTAVYYCAREPLLWFGELSYNWFDPWGQGTLVTVSSGGGGSGGGGSGGGGSQDIQMTQSPSSVSASVGDRVTITCRASQGISSWLAWYQQKPGKAPKLLIYAASSLQSGVPSRFSGSGSGTDFTLTISSLQPEDFATYYCQQANSFPLTFGGGTKVEIKTGEPKSSDKTHTCPPCPAPEAAGAPSVFLFPPKPKDTLMISRTPEVTCVVVDVSHEDPEVKFNWYVDGVEVHNAKTKPREEQYNSTYRVVSVLTVLHQDWLNGKAYACAVSNKALPAPIEKTISKAKGQPREPQVYTLPPSRDELTKNQVSLTCLVKGFYPSDIAVEWESNGQPENNYKTTPPVLDSDGSFFLYSKLTVDKSRWQQGNVFSCSVMHEALHNHYTQKSLSLSPGK
notes: SMIP (scFv - linker - CH2CH3)
On to B3, for which the values for the Kd (with recombinant human IL6 [3]; in assay [1]; with hu HIL6 AFH monomer) were 0.44 nM, 2.7 nM and 2 nM, respectively. Besides, the binding result with sIL6R Fc dimer is “no binding (tested: 100 nM)”.
